# Results from patent US20170369523A1, “TEMPLATE-FIXED BETA-HAIRPIN PEPTIDOMIMETICS THAT ARE LIGANDS FOR G-PROTEIN-COUPLED RECEPTORS (GPCRS) AND ARE MODULATORS OF TRANSCRIPTION FACTORS AND COACTIVATORS” (POLYPHOR AG, priority 2008, published 2017).
# Numbered stars: 1 amine (or outer) side, 2 acyl side, 3 side chain; on linkers, the order of the positions; unused ones are H or OH. Square brackets hold non-standard residues; d marks the D form. Glu(cHx) = L-glutamic acid cyclohexyl ester, O=C(CC[C@H](N[*:1])C(=O)[*:2])OC1CCCCC1; Trp(6-Cl) = N[C@@H](Cc1c[nH]c2cc(Cl)ccc12)C(=O)O; Hyp = O=C(O)[C@@H]1C[C@@H](O)CN1
# T1: NCoA-1 (UniProt Q15788 257-385, limits assumed)
# T1 construct: also called SRC-1
# T1 sequence (looked up): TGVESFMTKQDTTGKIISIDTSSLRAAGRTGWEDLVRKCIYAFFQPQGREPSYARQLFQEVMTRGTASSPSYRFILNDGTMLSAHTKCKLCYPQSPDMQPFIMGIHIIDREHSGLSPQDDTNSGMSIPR
# Molecular target: T1, NCoA-1
# Experiment: competition fluorescence polarization; displacement of FluoSTAT6 from NCoA-1
# Protocol: The mixtures were shaken thoroughly. Fluorescence polarization was measured on a SPECTRAmax M5 spectrometer (Molecular device) following 5-30 min incubation at room temperature. FluoSTAT6 was excited at 490 nm and emission polarization was detected at 525 nm. 40 intensity measurements were collected for each well, 20 at horizontal position of the dynamic polarizer, 20 at parallel position. As the fraction of FluoSTAT6 bound to NCoA-1 is correlated to the fluorescence polarization (FP), after normalization, the fraction of bound FluoSTAT6 (B) was determined, and the KD was calculated according to B=[(1+P/R+KD/R)−((1+P/R+KD/R)²−4P/R)^{0.5}]/2, wherein P is the total probe concentration, R the total protein concentration and KD the dissociation constant (M. H. Roehrl, J. Y. Wang, G. Wagner, Biochemistry 2004, 3, 16056).
# To determine the Kᵢ values of potential inhibitors of the STAT6/NCoA-1 interaction (competition fluorescence polarization) the compounds (dilution series from 0 to 100 μM final concentration) dissolved in HEPES buffer (10 mM HEPES, 150 mM NaCl, 3.4 mM EDTA, 0.1% BSA) were dispensed in a black 96 well plate (Greiner) and FluoSTAT6 (200 nM final concentration) in HEPES buffer was added. The mixture was completed by a HEPES buffer solution of NCoA-1 (1 μM final concentration) and processed as described above. STAT6Y (C-terminal tyrosine extended STAT6 794-814 peptide) was used as a positive control. As the total fluorescence intensity of FluoSTAT6 remains similar for all samples, the fraction of peptide bound to NCoA-1 is correlated to the fluorescence polarization.
# Following normalization data were fitted with IGORpro Software® (WaveMetrics, Lake Oswego, Oreg., USA) to a sigmoid equation to determine IC₅₀ values.
row,Binder,Ki
1,"cyclo(FE[Trp(6-Cl)]LDWAF[dP]P) (SMILES CC(C)C[C@@H]1NC(=O)[C@H](Cc2c[nH]c3cc(Cl)ccc23)NC(=O)[C@H](CCC(=O)O)NC(=O)[C@H](Cc2ccccc2)NC(=O)[C@@H]2CCCN2C(=O)[C@H]2CCCN2C(=O)[C@H](Cc2ccccc2)NC(=O)[C@H](C)NC(=O)[C@H](Cc2c[nH]c3ccccc23)NC(=O)[C@H](CC(=O)O)NC1=O, cyclo(-P1..P8-template-)) [Ex. 13]",2 µM
2,"cyclo(FEWLAWEF[dP][Hyp]) (SMILES CC(C)C[C@@H]1NC(=O)[C@H](Cc2c[nH]c3ccccc23)NC(=O)[C@H](CCC(=O)O)NC(=O)[C@H](Cc2ccccc2)NC(=O)[C@@H]2C[C@@H](O)CN2C(=O)[C@H]2CCCN2C(=O)[C@H](Cc2ccccc2)NC(=O)[C@H](CCC(=O)O)NC(=O)[C@H](Cc2c[nH]c3ccccc23)NC(=O)[C@H](C)NC1=O, cyclo(-P1..P8-template-)) [Ex. 2]",4.7 µM
3,"cyclo(FEWLYWEF[dP]P) (SMILES CC(C)C[C@@H]1NC(=O)[C@H](Cc2c[nH]c3ccccc23)NC(=O)[C@H](CCC(=O)O)NC(=O)[C@H](Cc2ccccc2)NC(=O)[C@@H]2CCCN2C(=O)[C@H]2CCCN2C(=O)[C@H](Cc2ccccc2)NC(=O)[C@H](CCC(=O)O)NC(=O)[C@H](Cc2c[nH]c3ccccc23)NC(=O)[C@H](Cc2ccc(O)cc2)NC1=O, cyclo(-P1..P8-template-)) [Ex. 12]",9.3 µM
4,"cyclo(FEWLDWEF[dP]P) (SMILES CC(C)C[C@@H]1NC(=O)[C@H](Cc2c[nH]c3ccccc23)NC(=O)[C@H](CCC(=O)O)NC(=O)[C@H](Cc2ccccc2)NC(=O)[C@@H]2CCCN2C(=O)[C@H]2CCCN2C(=O)[C@H](Cc2ccccc2)NC(=O)[C@H](CCC(=O)O)NC(=O)[C@H](Cc2c[nH]c3ccccc23)NC(=O)[C@H](CC(=O)O)NC1=O, cyclo(-P1..P8-template-)) [Ex. 19]",3.7 µM
5,"cyclo(FEWGAWEF[dP]P) (SMILES C[C@@H]1NC(=O)CNC(=O)[C@H](Cc2c[nH]c3ccccc23)NC(=O)[C@H](CCC(=O)O)NC(=O)[C@H](Cc2ccccc2)NC(=O)[C@@H]2CCCN2C(=O)[C@H]2CCCN2C(=O)[C@H](Cc2ccccc2)NC(=O)[C@H](CCC(=O)O)NC(=O)[C@H](Cc2c[nH]c3ccccc23)NC1=O, cyclo(-P1..P8-template-)) [Ex. 7]",7.1 µM
6,"cyclo(FEWLAWLF[dP]P) (SMILES CC(C)C[C@@H]1NC(=O)[C@H](Cc2c[nH]c3ccccc23)NC(=O)[C@H](CCC(=O)O)NC(=O)[C@H](Cc2ccccc2)NC(=O)[C@@H]2CCCN2C(=O)[C@H]2CCCN2C(=O)[C@H](Cc2ccccc2)NC(=O)[C@H](CC(C)C)NC(=O)[C@H](Cc2c[nH]c3ccccc23)NC(=O)[C@H](C)NC1=O, cyclo(-P1..P8-template-)) [Ex. 24]",24.3 µM
7,"cyclo(FE[Trp(6-Cl)]LDAEF[dP]P) (SMILES CC(C)C[C@@H]1NC(=O)[C@H](Cc2c[nH]c3cc(Cl)ccc23)NC(=O)[C@H](CCC(=O)O)NC(=O)[C@H](Cc2ccccc2)NC(=O)[C@@H]2CCCN2C(=O)[C@H]2CCCN2C(=O)[C@H](Cc2ccccc2)NC(=O)[C@H](CCC(=O)O)NC(=O)[C@H](C)NC(=O)[C@H](CC(=O)O)NC1=O, cyclo(-P1..P8-template-)) [Ex. 18]",3.3 µM

# The remaining binders from weak to strong by Ki, led by results:
row,Ki,Binder
1,19.6 µM,"cyclo(FEWLAWYF[dP]P) (SMILES CC(C)C[C@@H]1NC(=O)[C@H](Cc2c[nH]c3ccccc23)NC(=O)[C@H](CCC(=O)O)NC(=O)[C@H](Cc2ccccc2)NC(=O)[C@@H]2CCCN2C(=O)[C@H]2CCCN2C(=O)[C@H](Cc2ccccc2)NC(=O)[C@H](Cc2ccc(O)cc2)NC(=O)[C@H](Cc2c[nH]c3ccccc23)NC(=O)[C@H](C)NC1=O, cyclo(-P1..P8-template-)) [Ex. 21]"
2,16.4 µM,"cyclo(EEWLAWEF[dP]P) (SMILES CC(C)C[C@@H]1NC(=O)[C@H](Cc2c[nH]c3ccccc23)NC(=O)[C@H](CCC(=O)O)NC(=O)[C@H](CCC(=O)O)NC(=O)[C@@H]2CCCN2C(=O)[C@H]2CCCN2C(=O)[C@H](Cc2ccccc2)NC(=O)[C@H](CCC(=O)O)NC(=O)[C@H](Cc2c[nH]c3ccccc23)NC(=O)[C@H](C)NC1=O, cyclo(-P1..P8-template-)) [Ex. 23]"
3,15.8 µM,"cyclo(FEALDWEF[dP]P) (SMILES CC(C)C[C@@H]1NC(=O)[C@H](C)NC(=O)[C@H](CCC(=O)O)NC(=O)[C@H](Cc2ccccc2)NC(=O)[C@@H]2CCCN2C(=O)[C@H]2CCCN2C(=O)[C@H](Cc2ccccc2)NC(=O)[C@H](CCC(=O)O)NC(=O)[C@H](Cc2c[nH]c3ccccc23)NC(=O)[C@H](CC(=O)O)NC1=O, cyclo(-P1..P8-template-)) [Ex. 17]"
4,11.5 µM,"cyclo(FEWLAWEE[dP]P) (SMILES CC(C)C[C@@H]1NC(=O)[C@H](Cc2c[nH]c3ccccc23)NC(=O)[C@H](CCC(=O)O)NC(=O)[C@H](Cc2ccccc2)NC(=O)[C@@H]2CCCN2C(=O)[C@H]2CCCN2C(=O)[C@H](CCC(=O)O)NC(=O)[C@H](CCC(=O)O)NC(=O)[C@H](Cc2c[nH]c3ccccc23)NC(=O)[C@H](C)NC1=O, cyclo(-P1..P8-template-)) [Ex. 20]"
5,8.9 µM,"cyclo(FLWLAWEF[dP]P) (SMILES CC(C)C[C@@H]1NC(=O)[C@H](Cc2c[nH]c3ccccc23)NC(=O)[C@H](CC(C)C)NC(=O)[C@H](Cc2ccccc2)NC(=O)[C@@H]2CCCN2C(=O)[C@H]2CCCN2C(=O)[C@H](Cc2ccccc2)NC(=O)[C@H](CCC(=O)O)NC(=O)[C@H](Cc2c[nH]c3ccccc23)NC(=O)[C@H](C)NC1=O, cyclo(-P1..P8-template-)) [Ex. 22]"
6,8.7 µM,"cyclo(FEWYAWEF[dP]P) (SMILES C[C@@H]1NC(=O)[C@H](Cc2ccc(O)cc2)NC(=O)[C@H](Cc2c[nH]c3ccccc23)NC(=O)[C@H](CCC(=O)O)NC(=O)[C@H](Cc2ccccc2)NC(=O)[C@@H]2CCCN2C(=O)[C@H]2CCCN2C(=O)[C@H](Cc2ccccc2)NC(=O)[C@H](CCC(=O)O)NC(=O)[C@H](Cc2c[nH]c3ccccc23)NC1=O, cyclo(-P1..P8-template-)) [Ex. 11]"
7,7.9 µM,"cyclo(MEWLDWEF[dP]P) (SMILES CSCC[C@@H]1NC(=O)[C@@H]2CCCN2C(=O)[C@H]2CCCN2C(=O)[C@H](Cc2ccccc2)NC(=O)[C@H](CCC(=O)O)NC(=O)[C@H](Cc2c[nH]c3ccccc23)NC(=O)[C@H](CC(=O)O)NC(=O)[C@H](CC(C)C)NC(=O)[C@H](Cc2c[nH]c3ccccc23)NC(=O)[C@H](CCC(=O)O)NC1=O, cyclo(-P1..P8-template-)) [Ex. 27]"
8,6.6 µM,"cyclo(FEWLDWEM[dP]P) (SMILES CSCC[C@@H]1NC(=O)[C@H](CCC(=O)O)NC(=O)[C@H](Cc2c[nH]c3ccccc23)NC(=O)[C@H](CC(=O)O)NC(=O)[C@H](CC(C)C)NC(=O)[C@H](Cc2c[nH]c3ccccc23)NC(=O)[C@H](CCC(=O)O)NC(=O)[C@H](Cc2ccccc2)NC(=O)[C@@H]2CCCN2C(=O)[C@H]2CCCN2C1=O, cyclo(-P1..P8-template-)) [Ex. 16]"
9,3 µM,"cyclo(FEWLGWEF[dP]P) (SMILES CC(C)C[C@@H]1NC(=O)[C@H](Cc2c[nH]c3ccccc23)NC(=O)[C@H](CCC(=O)O)NC(=O)[C@H](Cc2ccccc2)NC(=O)[C@@H]2CCCN2C(=O)[C@H]2CCCN2C(=O)[C@H](Cc2ccccc2)NC(=O)[C@H](CCC(=O)O)NC(=O)[C@H](Cc2c[nH]c3ccccc23)NC(=O)CNC1=O, cyclo(-P1..P8-template-)) [Ex. 8]"
10,1.5 µM,"cyclo(FEWLAWE[Glu(cHx)][dP]P) (SMILES CC(C)C[C@@H]1NC(=O)[C@H](Cc2c[nH]c3ccccc23)NC(=O)[C@H](CCC(=O)O)NC(=O)[C@H](Cc2ccccc2)NC(=O)[C@@H]2CCCN2C(=O)[C@H]2CCCN2C(=O)[C@H](CCC(=O)OC2CCCCC2)NC(=O)[C@H](CCC(=O)O)NC(=O)[C@H](Cc2c[nH]c3ccccc23)NC(=O)[C@H](C)NC1=O, cyclo(-P1..P8-template-)) [Ex. 9]"
11,1.4 µM,"cyclo(FA[Trp(6-Cl)]LDWEF[dP]P) (SMILES CC(C)C[C@@H]1NC(=O)[C@H](Cc2c[nH]c3cc(Cl)ccc23)NC(=O)[C@H](C)NC(=O)[C@H](Cc2ccccc2)NC(=O)[C@@H]2CCCN2C(=O)[C@H]2CCCN2C(=O)[C@H](Cc2ccccc2)NC(=O)[C@H](CCC(=O)O)NC(=O)[C@H](Cc2c[nH]c3ccccc23)NC(=O)[C@H](CC(=O)O)NC1=O, cyclo(-P1..P8-template-)) [Ex. 14]"
